In one assay the target is T1, ANG2 (human, UniProt O15123 19-496, limits assumed).
T1 sequence: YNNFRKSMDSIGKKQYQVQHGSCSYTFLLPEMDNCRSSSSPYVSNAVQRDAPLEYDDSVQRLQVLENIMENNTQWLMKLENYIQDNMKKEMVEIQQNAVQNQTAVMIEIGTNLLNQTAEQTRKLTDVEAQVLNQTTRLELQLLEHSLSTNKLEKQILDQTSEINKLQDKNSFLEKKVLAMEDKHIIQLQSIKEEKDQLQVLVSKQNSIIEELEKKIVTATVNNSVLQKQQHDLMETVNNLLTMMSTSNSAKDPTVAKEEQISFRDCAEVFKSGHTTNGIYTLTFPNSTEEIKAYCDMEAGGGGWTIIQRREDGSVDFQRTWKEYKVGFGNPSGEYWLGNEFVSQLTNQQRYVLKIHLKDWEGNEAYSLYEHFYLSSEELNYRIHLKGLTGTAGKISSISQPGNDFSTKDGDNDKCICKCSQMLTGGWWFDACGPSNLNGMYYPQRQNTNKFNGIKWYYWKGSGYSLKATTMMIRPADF
The assay is described as follows: cell-based or functional assay.

The target in the next assay is T2, human VEGFA-121 (human, UniProt P15692 181-395).
T2 sequence: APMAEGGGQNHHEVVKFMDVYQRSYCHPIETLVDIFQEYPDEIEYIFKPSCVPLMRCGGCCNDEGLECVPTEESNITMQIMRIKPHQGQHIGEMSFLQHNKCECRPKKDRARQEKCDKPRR
The assay is described as follows: cell-based or functional assay.

The next assay has as its target T3, human Ang2-RBD-muFc (human, UniProt O15123 275-496, limits assumed).
T3 construct: also called Human ANG2 (KinExA); not shown: murine Fc (muFc)
T3 sequence: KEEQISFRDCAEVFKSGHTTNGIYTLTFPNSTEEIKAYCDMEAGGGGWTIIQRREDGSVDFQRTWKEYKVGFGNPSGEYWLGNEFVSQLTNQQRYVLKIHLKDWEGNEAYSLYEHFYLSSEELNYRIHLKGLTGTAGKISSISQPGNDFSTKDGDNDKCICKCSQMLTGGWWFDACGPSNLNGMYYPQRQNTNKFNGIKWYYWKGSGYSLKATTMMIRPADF
Put plainly: KinExA equilibrium titration in solution, constant Ang2-RBD-muFc. On the procedure:
All KinExA® experiments were performed at room temperature (RT) using PBS pH 7.4 with 0.01% BSA and 0.01% Tween® 20 (BioRad, #161-0781) as running buffer. […] A flow rate of 0.25 ml/min was used. A constant amount of Ang2-RBD-muFc (50 pM and in a second experiment 500 pM) was titrated with tested antibody by twofold serial dilution starting at 4 nM (concentration range 1.95 pM-4000 pM). Antigen-antibody complexes were incubated at RT for at least 8 h to allow equilibrium to be reached. Equilibrated mixtures were then drawn through a column of Anti-Ang2 antibody (MAB098) coupled beads in the KinExA® system at a volume of 750 μl for 50 pM constant Ang2 and at a volume of 188 μl for 500 pM constant Ang2 permitting unbound Ang2 to be captured by the beads without perturbing the equilibrium state of the solution. Bound Ang2 was detected using a second biotinylated anti-Ang2 antibody (BAM0981) with a concentration of 250 ng/ml and following by an injection of 250 ng/ml Streptavidin Alexa Fluor™ 647 conjugate in sample buffer. Each sample was measured in duplicates for all equilibrium experiments. The KD was obtained from non-linear regression analysis of the data using a one-site homogeneous binding model contained within the KinExA® software (Version 4.0.11) using the “standard analysis” method. The software calculates the KD and determines the 95% confidence interval by fitting the data points to a theoretical KD curve. The 95% confidence interval is given as KD low and KD high.
(In general: In KinExA the mixture passes briefly over coated beads that capture the unbound partner.)

In assay [1] the target is T4, human VEGFA-121-His (human, UniProt P15692 181-395).
T4 construct: Prepared in-house; not shown: His tag
T4 sequence: T2 sequence
Put plainly: SPR, VEGF-A121-His captured by anti-His antibody, Fab injected, single cycle kinetics; marked outside of Biacore specification. The procedure: (§1) An anti-His capturing antibody (GE Healthcare 28995056) was immobilized to a Series S Sensor Chip C1 (GE Healthcare BR100535) using standard amine coupling chemistry resulting in a surface density of approximately 600 resonance units (RU). As running and dilution buffer, HBS-P+ (10 mM HEPES, 150 mM NaCl pH 7.4, 0.05% Surfactant P20) was used. […] A dilution series of the tested antibody (3.7-300 nM, 1:3 dilution) was successively injected for 60 s each, dissociation was monitored for 3600 s at a flow rate of 30 μl/min (single cycle kinetics). The surface was regenerated by injecting 10 mM Glycine pH 1.5 for 60 s at a flow of 5 μl/min. […] Curve fitting was performed using the 1:1 Langmuir binding model within the Biacore® evaluation software.
(§2) Binding kinetics to human VEGF-A and human ANG2 for the candidate antibodies were assessed as described above using the indicated Fab fragments (amino acid sequence as illustrated in Table 4).
In general terms: In SPR one partner is held on a chip, and binding of the other changes the refractive index at the surface.

The target in assay [2] is T4, human VEGFA-121-His. Put plainly: SPR, VEGF-A121-His captured by anti-His antibody, Fab injected, single cycle kinetics; marked outside of Biacore specification; exponent as printed. On the procedure:
as §1, §2

One may read the Kd as the equilibrium constant for the complex coming apart. A word on the koff: it is the first-order rate constant of dissociation.

Residue numbers refer to the chain shown, from its start.

B1: bispecific anti-VEGF-A/anti-ANG2 Fab fragment P1AA0902 (Fab, V domains shown)
VH: DDHLVESGGGLVKPGGSLRLSCATADFFEYDDMSWVRQAPGKGLEWVGSISGRGDHKYLNTKFIGRFTISRDDSKNTLYLQMNSLRAEDTAVYYCARDVGFFDWWGQGTLVTVSS
VL: AIYMHQEPSSLSASVGDRVTITCHGSYWLNSELAWYQQKPGKAPKLLIFDGDFKVFDVPSRFSGSGSHEDYTLTISSLQPEDFATYYCQQYRYHPYTFGHGTKVEIKR
notes: Bispecific Fab with two paratopes in one VH/VL pair
As to B1, the “IC50, pTie2-Assay (Tie2 phosphorylation in Hek293 cells expressing Tie2, stimulated with Ang-2)” value in the assay with ANG2 was determined as 7 nM. In the assay with human VEGFA-121, the “IC50, Reporter Gene Assay (Hek_NFAT_KDR_Luc cells stimulated with VEGF-A121, luminescence)” value was found to be 1090 pM. The Kd with human Ang2-RBD-muFc amounted to 2.75 pM. In the assay with human VEGFA-121-His [1], this molecule registered a Kd of 11 pM and a koff of 8.27e-06 s⁻¹.

B2: bispecific anti-VEGF-A/anti-ANG2 Fab fragment P1AA8906 (Fab, V domains shown)
VH: DFQLVESGGGLVKPGGSLRLSCAASYEFEYDDMSWVRQAPGKGLEWVGSISPKGGSTYYNTKFIGRFTISRDNSKNTLYLQMNSLRAEDTAVYYCARDVGFFDMWGQGTLVTVSS
VL: B1 VL with N30S, S31N, E32Y, G51A, D52R, F53W, K54L, F56H, D57G
notes: Bispecific Fab with two paratopes in one VH/VL pair (DutaFab); CH1 and Ckappa
Molecule B2 had a Kd with human Ang2-RBD-muFc of 7180 pM. In the assay with human VEGFA-121-His [1], this molecule displayed a Kd of 3 pM and a koff of 4.53e-06 s⁻¹.

B3: bispecific anti-VEGF-A/anti-ANG2 Fab fragment P1AD9820 (Fab, V domains shown)
VH: B1 VH with D1S, D2E, G52P, R53K
VL: B1 VL with L33V, F56Y, D57E
notes: Bispecific Fab with two paratopes in one VH/VL pair; also called P1AD9820 Fab
For the molecule B3, in the assay with ANG2, the “IC50, pTie2-Assay (Tie2 phosphorylation in Hek293 cells expressing Tie2, stimulated with Ang-2)” value was determined as 10 nM. Further, the “IC50, Reporter Gene Assay (Hek_NFAT_KDR_Luc cells stimulated with VEGF-A121, luminescence)” value with human VEGFA-121 was 1070 pM. Further, the values for the Kd in the assay with human Ang2-RBD-muFc and with human VEGFA-121-His [1] were 1.72 pM and 8 pM, respectively. Besides, the koff with human VEGFA-121-His [2] came to 5.82e-06 s⁻¹.

(Values after US20220073599A1 (Hoffmann-La Roche, published 2022).)
